Test results as given in patent US20250215109A1.

Target: HER2 on human tumor cells (human) (UniProt P04626)
Experiment: Her2 receptor occupancy on SK-BR-3 cells, FACS, competitor biotin-labeled parental anti-HER2 antibody

Max RO %: 0%
Substance: Magrolimab (antibody)
